# T1: O2
# T1 chain: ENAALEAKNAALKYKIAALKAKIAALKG
# T2: O3
# T2 chain: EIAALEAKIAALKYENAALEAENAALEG
# T3: O4
# T3 chain: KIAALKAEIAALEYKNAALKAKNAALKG
# T4: O5
# T4 chain: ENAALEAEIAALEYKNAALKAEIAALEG
# T5: O6
# T5 chain: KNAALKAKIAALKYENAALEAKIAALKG
# T6: O7
# T6 chain: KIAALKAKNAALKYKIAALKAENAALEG
# T7: O8
# T7 chain: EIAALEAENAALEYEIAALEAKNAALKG
# T8: O9
# T8 chain: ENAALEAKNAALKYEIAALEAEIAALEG
# T9: 4H3354-bH
# T9 chain: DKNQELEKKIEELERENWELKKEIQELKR
# T10: 4H338-bH
# T10 chain: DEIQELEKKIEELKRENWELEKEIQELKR
# T11: 4H3427-bH
# T11 chain: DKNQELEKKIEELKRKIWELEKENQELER
# T12: 4H3782-bH
# T12 chain: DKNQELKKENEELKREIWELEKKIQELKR
# T13: 4H3855-bH
# T13 chain: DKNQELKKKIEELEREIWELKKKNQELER
# T14: 4H4001-bH
# T14 chain: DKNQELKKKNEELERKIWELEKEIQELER
# T15: 4H454-bH
# T15 chain: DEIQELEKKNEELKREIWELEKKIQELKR
# T16: 4H496-bN
# T16 chain: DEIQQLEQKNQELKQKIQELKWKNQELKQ
# T17: 4H568-bH
# T17 chain: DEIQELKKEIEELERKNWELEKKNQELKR
# T18: 4H607-bH
# T18 chain: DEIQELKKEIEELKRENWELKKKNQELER
# T19: 4H687-bH
# T19 chain: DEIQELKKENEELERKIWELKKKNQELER
# T20: 4H717-bH
# T20 chain: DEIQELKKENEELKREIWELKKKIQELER
# T21: 4H72-bH
# T21 chain: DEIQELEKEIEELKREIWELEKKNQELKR
# T22: 4H754-bH
# T22 chain: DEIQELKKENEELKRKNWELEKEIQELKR
# T23: 4H797-bH
# T23 chain: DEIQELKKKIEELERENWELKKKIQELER
# T24: 4H883-bH
# T24 chain: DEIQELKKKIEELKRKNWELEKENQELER
# T25: 4H908-bH
# T25 chain: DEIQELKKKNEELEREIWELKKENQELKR
# T26: 4H918-bH
# T26 chain: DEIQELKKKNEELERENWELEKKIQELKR
# T27: 4H953-bH
# T27 chain: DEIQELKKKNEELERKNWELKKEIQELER
# T28: 4H967-bH
# T28 chain: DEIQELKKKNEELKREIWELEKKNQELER
# T29: 4H235-AA
# T29 chain: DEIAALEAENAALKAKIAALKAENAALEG
# T30: 4H249-AA
# T30 chain: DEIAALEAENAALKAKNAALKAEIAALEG
# T31: 4H2580-AA
# T31 chain: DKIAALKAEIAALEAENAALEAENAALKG
# T32: 4H2604-AA
# T32 chain: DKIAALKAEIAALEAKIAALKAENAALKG
# T33: 4H2621-AA
# T33 chain: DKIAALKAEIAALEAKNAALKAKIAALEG
# T34: 4H2760-AA
# T34 chain: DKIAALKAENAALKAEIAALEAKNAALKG
# T35: 4H2774-AA
# T35 chain: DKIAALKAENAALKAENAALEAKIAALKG
# T36: 4H2903-AA
# T36 chain: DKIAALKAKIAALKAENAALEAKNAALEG
# T37: 4H2947-AA
# T37 chain: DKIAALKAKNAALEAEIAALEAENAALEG
# T38: 4H2961-AA
# T38 chain: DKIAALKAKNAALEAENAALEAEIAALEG
# T39: 4H3049-AA
# T39 chain: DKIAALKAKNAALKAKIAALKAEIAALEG
# T40: 4H3094-AA
# T40 chain: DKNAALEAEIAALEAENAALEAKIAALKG
# T41: 4H324-AA
# T41 chain: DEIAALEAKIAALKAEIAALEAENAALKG
# T42: 4H341-AA
# T42 chain: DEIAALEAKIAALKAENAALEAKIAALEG
# T43: 4H3449-AA
# T43 chain: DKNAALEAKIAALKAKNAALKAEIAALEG
# T44: 4H3619-AA
# T44 chain: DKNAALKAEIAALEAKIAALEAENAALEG
# T45: 4H3629-AA
# T45 chain: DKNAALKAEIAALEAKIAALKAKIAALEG
# T46: 4H3777-AA
# T46 chain: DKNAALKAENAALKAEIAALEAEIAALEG
# T47: 4H380-AA
# T47 chain: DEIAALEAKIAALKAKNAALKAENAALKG
# T48: 4H3915-AA
# T48 chain: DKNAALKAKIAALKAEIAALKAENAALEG
# T49: 4H3974-AA
# T49 chain: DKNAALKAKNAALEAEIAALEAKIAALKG
# T50: 4H432-AA
# T50 chain: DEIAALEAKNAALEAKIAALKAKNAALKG
# T51: 4H446-AA
# T51 chain: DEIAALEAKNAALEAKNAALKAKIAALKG
# T52: 4H63-AA
# T52 chain: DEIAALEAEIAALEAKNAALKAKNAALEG
# What was measured:
# [1] = biological target: T1, O2; test: two-hybrid library CC0; settings: mean of both orientations;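 also: natural log of median RNA to DNA barcode read ratio; higher means stronger binding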
# [2] = biological target: T2, O3; test: two-hybrid library CC0; settings: mean of both orientations;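 also: natural log of median RNA to DNA barcode read ratio; higher means stronger binding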
# [3] = biological target: T3, O4; test: two-hybrid library CC0; settings: mean of both orientations;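 also: natural log of median RNA to DNA barcode read ratio; higher means stronger binding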
# [4] = biological target: T4, O5; test: two-hybrid library CC0; settings: mean of both orientations;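 also: natural log of median RNA to DNA barcode read ratio; higher means stronger binding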
# [5] = biological target: T5, O6; test: two-hybrid library CC0; settings: mean of both orientations;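 also: natural log of median RNA to DNA barcode read ratio; higher means stronger binding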
# [6] = biological target: T6, O7; test: two-hybrid library CC0; settings: mean of both orientations;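 also: natural log of median RNA to DNA barcode read ratio; higher means stronger binding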
# [7] = biological target: T7, O8; test: two-hybrid library CC0; settings: mean of both orientations
# [8] = biological target: T8, O9; test: two-hybrid library CC0; settings: mean of both orientations
# [9] = biological target: T9, 4H3354-bH; test: two-hybrid library CCNG1
# [10] = biological target: T10, 4H338-bH; test: two-hybrid library CCNG1
# [11] = biological target: T11, 4H3427-bH; test: two-hybrid library CCNG1
# [12] = biological target: T12, 4H3782-bH; test: two-hybrid library CCNG1
# [13] = biological target: T13, 4H3855-bH; test: two-hybrid library CCNG1
# [14] = biological target: T14, 4H4001-bH; test: two-hybrid library CCNG1
# [15] = biological target: T15, 4H454-bH; test: two-hybrid library CCNG1
# [16] = biological target: T16, 4H496-bN; test: two-hybrid library CCNG1
# [17] = biological target: T17, 4H568-bH; test: two-hybrid library CCNG1
# [18] = biological target: T18, 4H607-bH; test: two-hybrid library CCNG1
# [19] = biological target: T19, 4H687-bH; test: two-hybrid library CCNG1
# [20] = biological target: T20, 4H717-bH; test: two-hybrid library CCNG1
# [21] = biological target: T21, 4H72-bH; test: two-hybrid library CCNG1
# [22] = biological target: T22, 4H754-bH; test: two-hybrid library CCNG1
# [23] = biological target: T23, 4H797-bH; test: two-hybrid library CCNG1
# [24] = biological target: T24, 4H883-bH; test: two-hybrid library CCNG1
# [25] = biological target: T25, 4H908-bH; test: two-hybrid library CCNG1
# [26] = biological target: T26, 4H918-bH; test: two-hybrid library CCNG1
# [27] = biological target: T27, 4H953-bH; test: two-hybrid library CCNG1
# [28] = biological target: T28, 4H967-bH; test: two-hybrid library CCNG1
# [29] = biological target: T29, 4H235-AA; test: two-hybrid library CCmax
# [30] = biological target: T30, 4H249-AA; test: two-hybrid library CCmax; settings: mean of both orientations
# [31] = biological target: T31, 4H2580-AA; test: two-hybrid library CCmax; settings: mean of both orientations
# [32] = biological target: T32, 4H2604-AA; test: two-hybrid library CCmax; settings: mean of both orientations
# [33] = biological target: T33, 4H2621-AA; test: two-hybrid library CCmax; settings: mean of both orientations
# [34] = biological target: T34, 4H2760-AA; test: two-hybrid library CCmax; settings: mean of both orientations
# [35] = biological target: T35, 4H2774-AA; test: two-hybrid library CCmax; settings: mean of both orientations
# [36] = biological target: T36, 4H2903-AA; test: two-hybrid library CCmax; settings: mean of both orientations
# [37] = biological target: T37, 4H2947-AA; test: two-hybrid library CCmax; settings: mean of both orientations
# [38] = biological target: T38, 4H2961-AA; test: two-hybrid library CCmax; settings: mean of both orientations
# [39] = biological target: T39, 4H3049-AA; test: two-hybrid library CCmax; settings: mean of both orientations
# [40] = biological target: T40, 4H3094-AA; test: two-hybrid library CCmax; settings: mean of both orientations
# [41] = biological target: T41, 4H324-AA; test: two-hybrid library CCmax; settings: mean of both orientations
# [42] = biological target: T42, 4H341-AA; test: two-hybrid library CCmax; settings: mean of both orientations
# [43] = biological target: T43, 4H3449-AA; test: two-hybrid library CCmax; settings: mean of both orientations
# [44] = biological target: T44, 4H3619-AA; test: two-hybrid library CCmax; settings: mean of both orientations
# [45] = biological target: T45, 4H3629-AA; test: two-hybrid library CCmax; settings: mean of both orientations
# [46] = biological target: T46, 4H3777-AA; test: two-hybrid library CCmax; settings: mean of both orientations
# [47] = biological target: T47, 4H380-AA; test: two-hybrid library CCmax; settings: mean of both orientations
# [48] = biological target: T48, 4H3915-AA; test: two-hybrid library CCmax; settings: mean of both orientations
# [49] = biological target: T49, 4H3974-AA; test: two-hybrid library CCmax; settings: mean of both orientations
# [50] = biological target: T50, 4H432-AA; test: two-hybrid library CCmax; settings: mean of both orientations
# [51] = biological target: T51, 4H446-AA; test: two-hybrid library CCmax; settings: mean of both orientations
# [52] = biological target: T52, 4H63-AA; test: two-hybrid library CCmax; settings: mean of both orientations
binder,measurement,setting,value
ENAALEAKNAALKYKIAALKAKIAALKG [O2],interaction score,[1],-2.68
same,interaction score,[2],-2.68
same,interaction score,[3],-2.74
same,interaction score,[4],-2.66
same,interaction score,[5],-2.73
same,interaction score,[6],-2.83
same,interaction score,[7],-2.05
same,interaction score,[8],-1.04
DKNQELEKKIEELERENWELKKEIQELKR [4H3354-bH],interaction score,[9],1.31
same,interaction score,[10],0.838
same,interaction score,[11],0.568
same,interaction score,[12],-0.062
same,interaction score,[13],-0.383
same,interaction score,[14],-0.37
same,interaction score,[15],0.274
same,interaction score,[16],0.755
same,interaction score,[17],-1.08
same,interaction score,[18],-1.77
same,interaction score,[19],-2.6
same,interaction score,[20],0.648
same,interaction score,[21],-1.11
same,interaction score,[22],-0.2
same,interaction score,[23],0.357
same,interaction score,[24],-0.344
same,interaction score,[25],-1.61
same,interaction score,[26],0.89
same,interaction score,[27],-1.49
same,interaction score,[28],-0.105
DEIAALEAENAALKAKIAALKAENAALEG [4H235-AA],interaction score,[29],-1.14
same,interaction score,[30],-1.7
same,interaction score,[31],-0.865
same,interaction score,[32],-1.14
same,interaction score,[33],-0.985
same,interaction score,[34],2.27
same,interaction score,[35],1.48
same,interaction score,[36],-1.68
same,interaction score,[37],0.136
same,interaction score,[38],-1.27
same,interaction score,[39],-0.98
same,interaction score,[40],0.0844
same,interaction score,[41],-1.12
same,interaction score,[42],-0.261
same,interaction score,[43],0.816
same,interaction score,[44],-1.48
same,interaction score,[45],-1.09
same,interaction score,[46],0.00925
same,interaction score,[47],-1.71
same,interaction score,[48],-1.49
same,interaction score,[49],-0.571
same,interaction score,[50],-0.27
same,interaction score,[51],-1.78
same,interaction score,[52],-1.28

# Source: paper PMC10397247
